B1: C2CD2L (parent)
chain: LTLKVLRSSSCGDTELLGQATLPV

Variants of: B1
Assay: protein stability index of a GFP-peptide fusion (GPS, HEK-293T) (PSI 1-6); higher = more stable
Conditions: c terminus: a fixed tail appended
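Further: lentivirally expressed fusions sorted by FACS into six bins by GFP to DsRed ratio, PSI derived from sequencing read proportions per bin multiplied by bin number.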

Variant	protein stability index
LTLKVLRSSTCGDTELLGQATLPV [S10T]	3.38
LTLKVLRSSPCGDTELLGQATLPV [S10P]	2.45
LTLKVLRSSICGDTELLGQATLPV [S10I]	1.76
LTLKVLRSSQCGDTELLGQATLPV [S10Q]	1.78
LTLKVLRSSWCGDTELLGQATLPV [S10W]	4.07
LTLKVLRSSYCGDTELLGQATLPV [S10Y]	3.53
LTLKVLRSSLCGDTELLGQATLPV [S10L]	2.44
LTLKVLRSSVCGDTELLGQATLPV [S10V]	3.73
LTLKVLRSSHCGDTELLGQATLPV [S10H]	3
LTLKVLRSSNCGDTELLGQATLPV [S10N]	1.67
LTLKVLRSSKCGDTELLGQATLPV [S10K]	3.12
LTLKVLRSSMCGDTELLGQATLPV [S10M]	5.18
LTLKVLRSSSCGDTELLGGATLPV [Q19G]	1.91
LTLKVLRSSSCGDTELLGKATLPV [Q19K]	2.78
LTLKVLRSSSCGDTELLGVATLPV [Q19V]	1.43
LTLKVLRSSSCGDTELLGYATLPV [Q19Y]	3.56
LTLKVLRSSSCGDTELLGCATLPV [Q19C]	4.52
LTLKVLRSSSCGDTELLGHATLPV [Q19H]	2.94
LTLKVLRSSSCGDTELLGWATLPV [Q19W]	3.5
LTLKVLRSSSCGDTELLGSATLPV [Q19S]	2.79
LTLKVLRSSSCGDTELLGPATLPV [Q19P]	2.06
LTLKVLRSSSCGDTELLGMATLPV [Q19M]	3.83
LTLKVLRSSSCGDTELLGTATLPV [Q19T]	1.59
LTLKVLRSSSCGDTELLGEATLPV [Q19E]	2.86

Variant	protein stability index
LTLKVLRSSSCGDTELLGIATLPV [Q19I]	4.42
LTLKVLRSSSCGDTELLGDATLPV [Q19D]	1.61
LTLKVLRSSSCGDTELLGFATLPV [Q19F]	3.05
LTLKVLRSSSCGDTELLGNATLPV [Q19N]	3.21
LTLKVLRSSSCGDTELRGQATLPV [L17R]	1.35
LTLKVLRSSSCGDTELQGQATLPV [L17Q]	2.1
LTLKVLRSSSCGDTELVGQATLPV [L17V]	2.44
LTLKVLRSSSCGDTELKGQATLPV [L17K]	2.05
LTLKVLRSSSCGDTELSGQATLPV [L17S]	1.28
LTLKVLRSSSCGDTELHGQATLPV [L17H]	1.24
LTLKVLRSSSCGDTELCGQATLPV [L17C]	2.18
LTLKVLRSSSCGDTELGGQATLPV [L17G]	1.86
LTLKVLRSSSCGDTELIGQATLPV [L17I]	2.4
LTLKVLRSSSCGDTELDGQATLPV [L17D]	2.89
LTLKVLRSSSCGDTELYGQATLPV [L17Y]	1.57
LTLKVLRSSSCGDTELWGQATLPV [L17W]	2.04
LTLKVLRSSSCGDTELAGQATLPV [L17A]	2.08
LTLKVLRSSSCGDTELNGQATLPV [L17N]	3.12
LTLKVLRSSSCGDTELTGQATLPV [L17T]	1.92
LTLKVLRSSSCGDTELEGQATLPV [L17E]	2.7
LTLKVLRSSSCGDTELPGQATLPV [L17P]	2.15
LTLKVLRSSSCGDTELMGQATLPV [L17M]	1.11
LTLKVLRSSSCGDTELFGQATLPV [L17F]	2.92
LTLKVLRSSSCGDTNLLGQATLPV [E15N]	3.3

Variant	protein stability index
LTLKVLRSSSCGDTQLLGQATLPV [E15Q]	2.47
LTLKVLRSSSCGDTSLLGQATLPV [E15S]	3.58
LTLKVLRSSSCGDTPLLGQATLPV [E15P]	2.61
LTLKVLRSSSCGDTLLLGQATLPV [E15L]	3.22
LTLKVLRSSSCGDTYLLGQATLPV [E15Y]	2.19
LTLKVLRSSSCGDTFLLGQATLPV [E15F]	3.12
LTLKVLRSSSCGDTALLGQATLPV [E15A]	3.85
LTLKVLRSSSCGDTDLLGQATLPV [E15D]	1.41
LTLKVLRSSSCGDTTLLGQATLPV [E15T]	2.83
LTLKVLRSSSCGDTILLGQATLPV [E15I]	3.24
LTLKVLRSSSCGDTEYLGQATLPV [L16Y]	1.37
LTLKVLRSSSCGDTEFLGQATLPV [L16F]	2.34
LTLKVLRSSSCGDTESLGQATLPV [L16S]	1.72
LTLKVLRSSSCGDTEHLGQATLPV [L16H]	1.43
LTLKVLRSSSCGDTEVLGQATLPV [L16V]	4.08
LTLKVLRSSSCGDTEPLGQATLPV [L16P]	1.97
LTLKVLRSSSCGDTEKLGQATLPV [L16K]	1.9
LTLKVLRSSSCGDTETLGQATLPV [L16T]	2.01
LTLKVLRSSSCGDTEQLGQATLPV [L16Q]	1.78
LTLKVLRSSSCGDTENLGQATLPV [L16N]	1.92
LTLKVLRSSSCGDTEALGQATLPV [L16A]	1.79
LTLKVLRSSSCGDTEILGQATLPV [L16I]	2.19
LTLKVLRSSSCGDTERLGQATLPV [L16R]	1.8
LTLKVLRSSSCGDTEGLGQATLPV [L16G]	1.97

Variant	protein stability index
LTLKVLRSSSCGDTECLGQATLPV [L16C]	2.07
LTLKVLRSSSCGDTEDLGQATLPV [L16D]	2.69
LTLKVLRSSSCGDTEMLGQATLPV [L16M]	1.86
LTLKVLRSSSCGITELLGQATLPV [D13I]	3.63
LTLKVLRSSSCGSTELLGQATLPV [D13S]	2.38
LTLKVLRSSSCGFTELLGQATLPV [D13F]	3.62
LTLKVLRSSSCGRTELLGQATLPV [D13R]	1.47
LTLKVLRSSSCGPTELLGQATLPV [D13P]	2.02
LTLKVLRSSSCGWTELLGQATLPV [D13W]	3.58
LTLKVLRSSSCGQTELLGQATLPV [D13Q]	2.24
LTLKVLRSSSCGTTELLGQATLPV [D13T]	3.72
LTLKVLRSSSCGNTELLGQATLPV [D13N]	2.85
LTLKVLRSSSCGCTELLGQATLPV [D13C]	3.28
LTLKVLRSSSCGYTELLGQATLPV [D13Y]	2.16
LTLKVLRSSSCGGTELLGQATLPV [D13G]	4.31
LTLKVLRSSSRGDTELLGQATLPV [C11R]	1.9
LTLKVLRSSSYGDTELLGQATLPV [C11Y]	3.16
LTLKVLRSSSTGDTELLGQATLPV [C11T]	2.36
LTLKVLRSSSGGDTELLGQATLPV [C11G]	2.58
LTLKVLRSSSVGDTELLGQATLPV [C11V]	2.53
LTLKVLRSSSAGDTELLGQATLPV [C11A]	1.55
LTLKVLRSSSNGDTELLGQATLPV [C11N]	2.04
LTLKVLRSSSMGDTELLGQATLPV [C11M]	2.48
LTLKVLRSSSSGDTELLGQATLPV [C11S]	3.41

Variant	protein stability index
LTLKVLRSSSLGDTELLGQATLPV [C11L]	2.78
LTLKVLRSSSQGDTELLGQATLPV [C11Q]	1.43
LTLKVLRSSSEGDTELLGQATLPV [C11E]	1.66
LTLKVLRSSSDGDTELLGQATLPV [C11D]	1.8
LTLKVLRSSSPGDTELLGQATLPV [C11P]	1.34
LTLKVLRSSSKGDTELLGQATLPV [C11K]	2.11
LTLKVLRSSSHGDTELLGQATLPV [C11H]	1.63
LTLKVLRSSSIGDTELLGQATLPV [C11I]	4.68
LTLKVLRSSSCGDRELLGQATLPV [T14R]	2.06
LTLKVLRSSSCGDHELLGQATLPV [T14H]	2.47
LTLKVLRSSSCGDCELLGQATLPV [T14C]	1.79
LTLKVLRSSSCGDAELLGQATLPV [T14A]	3.11
LTLKVLRSSSCGDSELLGQATLPV [T14S]	1.8
LTLKVLRSSSCGDEELLGQATLPV [T14E]	2.58
LTLKVLRSSSCGDNELLGQATLPV [T14N]	1.91
LTLKVLRSSSCGDKELLGQATLPV [T14K]	1.04
LTLKVLRSSSCGDQELLGQATLPV [T14Q]	1.95
LTLKVLRSSSCGDMELLGQATLPV [T14M]	2.03
LTLKVLRSSSCGDGELLGQATLPV [T14G]	3.33
LTLKVLRSSSCGDYELLGQATLPV [T14Y]	3.11
LTLKVLRSSSCGDDELLGQATLPV [T14D]	2.2
LTLKVLRSSSCGDPELLGQATLPV [T14P]	2.74
LTLKVLRSSSCTDTELLGQATLPV [G12T]	1.82
LTLKVLRSSSCNDTELLGQATLPV [G12N]	1.56

Variant	protein stability index
LTLKVLRSSSCADTELLGQATLPV [G12A]	1.66
LTLKVLRSSSCRDTELLGQATLPV [G12R]	2.71
LTLKVLRSSSCLDTELLGQATLPV [G12L]	2.82
LTLKVLRSSSCVDTELLGQATLPV [G12V]	1.99
LTLKVLRSSSCSDTELLGQATLPV [G12S]	1.92
LTLKVLRSSSCFDTELLGQATLPV [G12F]	3.92
LTLKVLRSSSCMDTELLGQATLPV [G12M]	3.71
LTLKVLRSSSCPDTELLGQATLPV [G12P]	1.82
LTLKVLRSSSCYDTELLGQATLPV [G12Y]	1.42
LTLKVLRSSSCQDTELLGQATLPV [G12Q]	2.12
LTLKVLRSSSCEDTELLGQATLPV [G12E]	1.88
LTLKVLRSSSCWDTELLGQATLPV [G12W]	3.06
LTLKVLRSSSCKDTELLGQATLPV [G12K]	2.95
LTLKVLRSSSCHDTELLGQATLPV [G12H]	1.97
LTLKVLRSSSCIDTELLGQATLPV [G12I]	2.27
LTLKVLRSSSCDDTELLGQATLPV [G12D]	2.05
LTLKVLRSSSCGDTELLGQHTLPV [A20H]	1.23
LTLKVLRSSSCGDTELLGQQTLPV [A20Q]	2.09
LTLKVLRSSSCGDTELLGQETLPV [A20E]	2.1
LTLKVLRSSSCGDTELLGQLTLPV [A20L]	2.33
LTLKVLRSSSCGDTELLGQGTLPV [A20G]	1.03
LTLKVLRSSSCGDTELLGQMTLPV [A20M]	2.92
LTLKVLRSSSCGDTELLGQTTLPV [A20T]	1.79
LTLKVLRSSSCGDTELLGQKTLPV [A20K]	3.04

Variant	protein stability index
LTLKVLRSSSCGDTELLGQITLPV [A20I]	2.35
LTLKVLRSSSCGDTELLGQWTLPV [A20W]	3.17
LTLKVLRSSSCGDTELLGQSTLPV [A20S]	1.48
LTLKVLRSSSCGDTELLGQNTLPV [A20N]	2.49
LTLKVLRSSSCGDTELLGQDTLPV [A20D]	1.45
LTLKVLRSSSCGDTELLGQPTLPV [A20P]	1.96
LTLKVLRSSSCGDTELLGQRTLPV [A20R]	1.44
LTLKVLRSSSCGDTELLGQATAPV [L22A]	2.46
LTLKVLRSSSCGDTELLGQATCPV [L22C]	2.52
LTLKVLRSSSCGDTELLGQATDPV [L22D]	2.67
LTLKVLRSSSCGDTELLTQATLPV [G18T]	1.18
LTLKVLRSSSCGDTELLQQATLPV [G18Q]	1.78
LTLKVLRSSSCGDTELLKQATLPV [G18K]	1.71
LTLKVLRSSSCGDTELLCQATLPV [G18C]	2.07
LTLKVLRSSSCGDTELLFQATLPV [G18F]	2.89
LTLKVLRSSSCGDTELLEQATLPV [G18E]	2.26
LTLKVLRSSSCGDTELLNQATLPV [G18N]	2.11
LTLKVLRSSSCGDTELLAQATLPV [G18A]	1.97
LTLKVLRSSSCGDTELLLQATLPV [G18L]	3.01
LTLKVLRSSSCGDTELLVQATLPV [G18V]	2.88
LTLKVLRSSSCGDTELLPQATLPV [G18P]	2.11
LTLKVLRSSSCGDTELLSQATLPV [G18S]	1.97
LTLKVLRSSSCGDTELLDQATLPV [G18D]	2.28
LTLKVLRSSSCGDTELLMQATLPV [G18M]	2.32

Variant	protein stability index
LTLKVLRSSSCGDTELLYQATLPV [G18Y]	1.77
LTLKVLRSSSCGDTELLHQATLPV [G18H]	1.43
LTLKVLRSSSCGDTELLRQATLPV [G18R]	2.06
LTLKVLRSSSCGDTELLGQANLPV [T21N]	2.36
LTLKVLRSSSCGDTELLGQAKLPV [T21K]	2.08
LTLKVLRSSSCGDTELLGQAHLPV [T21H]	2.21
LTLKVLRSSSCGDTELLGQAALPV [T21A]	1.09
LTLKVLRSSSCGDTELLGQARLPV [T21R]	3.3
LTLKVLRSSSCGDTELLGQAYLPV [T21Y]	3.37
LTLKVLRSSSCGDTELLGQAVLPV [T21V]	2.34
LTLKVLRSSSCGDTELLGQAFLPV [T21F]	3.74
LTLKVLRSSSCGDTELLGQAPLPV [T21P]	2.22
LTLKVLRSSSCGDTELLGQADLPV [T21D]	1.57
LTLKVLRSSSCGDTELLGQAQLPV [T21Q]	1.58
LTLKVLRSSSCGDTELLGQAGLPV [T21G]	2.94
LTLKVLRSSSCGDTELLGQACLPV [T21C]	1.68
LTLKVLRSSSCGDTELLGQAMLPV [T21M]	2.27
LTLKVLRSSSCGDTELLGQASLPV [T21S]	2.06
LTLKVLRSSSCGDTELLGQALLPV [T21L]	2.39
LTLKVLRSSSCGDTELLGQAELPV [T21E]	1.58

— the supplement of paper PMC10567573
